Results published in PMC7047619 (Arteriosclerosis, thrombosis, and vascular biology, 2020).
One block for each binder: values may come before it.

Molecular target: wild-type αIIbβ3 on HEK 293 cells (Homo sapiens, UniProt P08514;P05106)
Test: flow cytometry on cells

binding result: binds
B1: murine mAb 7E3 (antibody, V domains shown)
VH: EVQLQQSGTVLARPGASVKMSCEASGYTFTNYWMHWVKQRPGQGLEWIGAIYPGNSDTSYIQKFKGKAKLTAVTSTTSVYMELSSLTNEDSAVYYCTLYDGYYVFAYWGQGTLVTVSA
VL: EIVLTQSPVTLSVTPGDSVSLSCRASRDISNNLHWFQQTSHESPRLLIKYASQSMSGIPSRFSGSGSGTDFTLSINSVETEDFGMYFCQQTNSWPYTFGGGTKLEIK

binding result: binds
B2: abciximab (Fab, V domains shown)
VH: B1 VH
VL: B1 VL
